From paper PMC6165534, “Inhibition of Homophilic Interactions and Ligand Binding of the Receptor for Advanced Glycation End Products by Heparin and Heparin-Related Carbohydrate Structures” (Medicines, 2018)

B1: sRAGE–Ig fusion protein lacking C2-domain (Fc fusion, human, UniProt Q15109 28-231, looked up)
chain: ARIGEPLVLKCKGAPKKPPQRLEWKLNTGRTEAWKVLSPQGGGPWDSVARVLPNGSLFLPAVGIQDEGIFRCQAMNRNGKETKSNYRVRVYQIPGKPEIVDSASELTAGVPNKVGTCVSEGSYPAGTLSWHLDGKPLVPNEKGVSVKEQTRRHPETGLFTLQSELMVTPARGGDPRPTFSCSFSPGLPRHRALRTAPIQPRVWE
notes: RAGE, human, extracellular part without the C2-domain, amino acids 28–231; also called delta C2; source: Drosophila S2 cells, purified (protein A-agarose chromatography)
B2: RAGE V1-domain Ig-fusion protein (Fc fusion, human, UniProt Q15109 28-119, looked up)
chain: ARIGEPLVLKCKGAPKKPPQRLEWKLNTGRTEAWKVLSPQGGGPWDSVARVLPNGSLFLPAVGIQDEGIFRCQAMNRNGKETKSNYRVRVYQ
notes: RAGE, human, V1-domain, amino acids 28–119; also called V1–Ig; RAGE V1–Fc; source: Drosophila S2 cells, purified (protein A-agarose chromatography)
B3: sRAGE–Ig fusion protein lacking C1-domain (Fc fusion, human, UniProt Q15109 28-331, looked up)
chain: ARIGEPLVLKCKGAPKKPPQRLEWKLNTGRTEAWKVLSPQGGGPWDSVARVLPNGSLFLPAVGIQDEGIFRCQAMNRNGKETKSNYRVRVYQPVPLEEVQLVVEPEGGAVAPGGTVTLTCEVPAQPSPQIHWMKDGVPLPLPPSPVLILPEIGPQDQGTYSCVATHSSHGPQESRAVSISIIEPGEEGPTAG
notes: RAGE, human, extracellular part without the C1-domain, amino acids 28–119 + 232–331; also called delta C1; source: Drosophila S2 cells, purified (protein A-agarose chromatography)

Target: the molecule itself
Experiment: bead aggregation assay; monomeric fluorescent protein A coated beads incubated with 10 μg/mL of the Ig-fusion proteins, no other exogenous ligands; aggregation followed by fluorescence microscopy, index Nt/N0, pictures after 60 min

| Protein | binding result |
| --- | --- |
| B1 | binds |
| B2 | binds |
| B3 | binds |
